From paper PMC11143242 (Nature Communications, 2024)

What was measured:
Conditions in all cases: both partners purified
MPXV B6 protein = MPXV B6 protein (Monkeypox virus, clade II …); test: SPR; antibodies (0.5 ug/mL) […]; BIAcore 8K, 25 °C, […]; 1:1 Langmuir model
MPXV B6 (T20-H279) = MPXV B6 (T20-H279) (Monkeypox virus, clade II …); test: ELISA
[1] = biological target: MPXV B6 SCR1-2-3-4 (T20-N241) (Monkeypox virus, clade II …); test: ELISA
[2] = biological target: MPXV B6 SCR1-2 (T20-E129) (Monkeypox virus, clade II …); test: ELISA
[3] = biological target: MPXV B6 SCR1-2-3 (T20-K185) (Monkeypox virus, clade II …); test: ELISA
VARV B7 = VARV B7 (Variola virus, India-1967, UniProt Q76QZ2); test: SPR
CPXV CPXV199 = CPXV CPXV199 (Cowpox virus, Brighton Red, UniProt Q8QMP6); test: SPR

B1: hMB668 (antibody, V domains shown)
VH: QVQLVQSGAEVKKPGSSVKVSCKSSGGTFSDYAINWVRQAPGQGLEWMGRILPIVGVPNYAQKFQGRVTITADKSSSTAYKEVSGLRSEDTAVYYCARRSGINGHGLDVWGQGTTVIVSS
VL: DIVMTQSPLSLPVTPGEPASISCRSSQSLLNTNGYNYLEWYLHKPGQSPQLLIYLGSHRASGVPDRFSGSGSGTDFTLKISRAEPEDVGVYYCMQTLQTQGYTFGQGTKLEIK
notes: also called MAb hMB668; source: Expi293F, transient transfection, purified (Protein A, gel filtration)
Kd (MPXV B6 protein): 6.2 nM
binding result (MPXV B6 (T20-H279)): binds
binding result [1]: binds
binding result [2]: binds
binding result [3]: binds
binding result (VARV B7): binds
binding result (CPXV CPXV199): binds

B2: hMB621 (antibody, V domains shown)
VH: QVQLVQSGGGVVQPGRSLRLSCVASGFSISTYPLHWVRQAPGKGLEWVAVISHDGRNKYYADSVKGRFSISRDNSKNTVYLQMNSLRVEDTAVYYCARAYPYAFDVWGQGTLVTVSS
VL: EIVLTQSPATLSVSPGETATLSCRASQSVRNDLAWYQQKPGQAPRLLIYGASTRASGIPARFSGSGSGTEFTLTISSLQSEDFAIYYCQQYKDWPPWTFGQGTKVEIK
Kd (MPXV B6 protein): 1.9 nM
binding result (MPXV B6 (T20-H279)): binds
binding result [1]: binds
binding result [3]: binds
binding result (VARV B7): binds
binding result (CPXV CPXV199): binds
